According to patent US20230257476A1 (ELANCO US, published 2023):

Biological target: T1, canine CD20 (canine, UniProt Q3C2E2 1-297)
T1 construct: whole, on cells; Endogenous antigen in acetone-fixed tissue cryosections (IHC); also called CD20 protein in dogs
T1 sequence (looked up): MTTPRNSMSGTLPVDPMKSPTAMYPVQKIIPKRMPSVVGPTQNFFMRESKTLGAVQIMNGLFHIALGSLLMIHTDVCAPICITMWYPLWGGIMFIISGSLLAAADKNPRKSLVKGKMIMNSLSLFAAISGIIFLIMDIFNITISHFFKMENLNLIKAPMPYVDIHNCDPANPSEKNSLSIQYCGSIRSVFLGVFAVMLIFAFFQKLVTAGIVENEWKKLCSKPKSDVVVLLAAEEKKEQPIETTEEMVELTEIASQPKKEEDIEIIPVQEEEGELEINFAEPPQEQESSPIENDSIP
Assay: IHC, precomplexed with biotinylated rabbit anti-dog IgG, cryosections of canine spleen, 10 ug/mL
Procedure: The detection reagent or negative control antibody (at a concentration of 10 […]) was mixed with biotinylated rabbit anti-dog IgG, Fc fragment-specific antibody (RbaDglgG) at a concentration of 15 ug/mL to achieve a primary : secondary antibody ratio of 1:1.5 on the day prior to staining.
Precomplexed antibodies were incubated overnight on a rocker mechanism in a refrigerator set to maintain 4° C., Prior to use of the antibody on the subsequent day, dog gamma globulins were added to each vial to achieve a final concentration of 3 mg/mL, and then incubated for at least 2 hours on the rocker mechanism in a refrigerator set to maintain 4° C. Slides were fixed in acetone for 10 minutes at room temperature at the time of sectioning. On the day of staining, the slides were rinsed twice with Tris-buffered saline, 0.15M NaCl, pH 7.6 TBS. Endogenous peroxidase was then quenched by incubation of the slides with an appropriate reagent such as Biocare PeroxAbolish reagent for 5 minutes at room temperature. Next, the slides were rinsed twice with TBS, incubated with the avidin solution for 15 minutes, rinsed once with TBS, incubated with the biotin solution for 15 minutes, and rinsed once with TBS, The slides were then treated with a protein block designed to reduce nonspecific binding for 20 minutes.

binding result: binds
B1: K9LO-133 (antibody, V domains shown)
VH: EVQLVQSGAEVKKPGESLKISCKGSGRTFTSYNMHWVRQMPGKGLEWMGAIYPLTGDTSYNQKSKLQVTISADKSISTAYLQWSSLKASDTAMYYCARSTYVGGDWQFDVWGKGTTVTVSS
VL: EIVLTQSPGTLSLSPGERATLSCRASRSVPYIHWYQQKPGQAPRLLIYATSALASGIPDRFSGSGSGTDFTLTISRLEPEDFAVYYCQQWLSNPPTFGQGTKLEIKR
notes: In the IHC it was precomplexed with biotinylated rabbit anti-dog IgG Fc antibody; also called chimeric canine isotype C monoclonal antibody directed against canine CD20
